Experiment [1] addresses human FcRn (hFcRn) (human) (UniProt P55899). Briefly: SPR (XPR36), hFcRn on chip, antibody flowed, pH 6.0.
For experiment [2] the target is unchanged. Nature of the experiment: SPR (XPR36), hFcRn on chip, antibody flowed, pH 7.4.
Experiment [3] shares this target. Nature of the experiment: ELISA, antibody coated, hFcRn added, anti-6-His detection, pH 6.0; reference WT.
Experiment [4] has the same target. Briefly: ELISA, antibody coated, hFcRn added, anti-6-His detection, pH 7.4; reference WT.

UniProt P55899, sequence (P55899 24-297 limits assumed, form in doubt): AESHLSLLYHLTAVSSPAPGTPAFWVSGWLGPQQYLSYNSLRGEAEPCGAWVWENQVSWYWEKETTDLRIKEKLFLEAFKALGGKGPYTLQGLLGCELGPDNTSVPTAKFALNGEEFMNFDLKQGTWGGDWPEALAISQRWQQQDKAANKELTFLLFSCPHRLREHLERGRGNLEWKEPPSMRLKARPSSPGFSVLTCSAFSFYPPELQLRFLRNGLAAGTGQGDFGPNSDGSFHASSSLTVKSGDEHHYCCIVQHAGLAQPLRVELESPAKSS

Take HN (H462K/N463F) 변이 SO57 항체 (antibody): the RU is 195 RU in experiment [1] and 100 RU in experiment [2]. The values for the fold increase of affinity over WT in experiment [3] and in experiment [4] were 18 배 (fold) and 17 배 (fold), respectively.

With MN (M457L/N463S) 변이 SO57 항체 (antibody), the RU in experiment [1] was 180 RU; in experiment [2] it was 70 RU. Further, the fold increase of affinity over WT in experiment [3] is 16 배 (fold); in experiment [4], 15 배 (fold).

On to “MST (M281Y/S283T/T285E) 변이 SO57 항체 (antibody)”, for which the RU came to 140 RU in experiment [1] and 20 RU in experiment [2]. In addition, the fold increase of affinity over WT was 12 배 (fold) in experiment [3] and 2 배 (fold) in experiment [4].

(Values after patent publication KR20190016466A.)
